Data from PMC6201568.

Legend:
Settings in all cases: 285 mM Tris-HCl pH 8.0, 0.14 mg/mL BSA, 1.43 mM DTT, 5% glycerol, 0.04 mg/mL poly(dI-dC), 3.06 mM EDTA, 10 uL, 30 min at 25 C, 6% PAGE in TAE pH 8.2
[1] = tested on: T1, PhaR-His6 (Bradyrhizobium diazoefficiens USDA110), ORF:9916d0df; assay: EMSA
T1 sequence: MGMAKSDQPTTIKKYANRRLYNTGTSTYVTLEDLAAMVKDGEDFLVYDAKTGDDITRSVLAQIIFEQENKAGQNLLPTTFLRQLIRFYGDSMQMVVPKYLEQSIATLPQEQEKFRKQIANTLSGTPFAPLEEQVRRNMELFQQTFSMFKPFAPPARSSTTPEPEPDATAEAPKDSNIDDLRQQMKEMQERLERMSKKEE

[2] = tested on: T1, PhaR-His6 (Bradyrhizobium diazoefficiens USDA110), ORF:9916d0df; assay: DNase I footprinting
[3] = tested on: PhaR-His6 (Bradyrhizobium diazoefficiens USDA110); assay: EMSA

With “CACAAGATGATGCTCGATCACTACCAGCAGACCAAGAATCTCCTGGTCAGCTACAGCCCGAAGAAGCTCGGCTTCTTCTGATCGGAACAGGAGCGGGCGGCGCCGTTCTGGCGCCGCTCGTTCCGGTAAACGGGACCTGGCCCGCACGGCGTTAGATTTGTTGCCTGATCAGCGCCAAAGATTTTCCAATATTTCGATCACGTTGCAGTGCGGCATAATGAATGTCGTGTCATGCCGCCGCGGTGCTTTCCAAGGGTGTTTGACTTGGGTTAGAGAGGACGAAAGTTTTCTCTGACCCGG (double strand) [pdhA promoter]” the binding [1] was “binds more weakly”.

In the case of “CTAAGGTGATGTTCTCAAACGGCTTTTGGCCGCTTGCGGAAGCTGAACACGTCCAGGGAATCAAGGTAGGGGTCCGCGGTTTCCAAAAGCTTAAGGAACCCTTGCGGGAAACCCCGGGAATCTCTTCGGTTTGGATCTAGTTTTTGTGCGACGCACAAGATTCTTGACTTTTTTGTGCGTTGCACTAATTGTGGGCAGAGTCAGGGAGCCGGGGCTTCCCGACGCGAGCCAGGGAAAAGGATTCCGAAATGTTCAAGGTTGAAGACTTTCAGAGCTACGGGAAAGAGCAGTTC (double strand) [FAM-phaP1 promoter (footprint)]”, the binding [2] was “binds”.

For “CTCTCACTTGCAAGACGCTGAGAACGGGAACCCGGCGGCCGATGCCGCAGGGCGGGAAGAGTACGCAACGCAACAAAATAAGCATTTTCAAAGGGGTCACGCTACCGTTTTGTGCGCCACGGTTAATCGGGCAGCAAAAACGT (double strand) [phaR promoter]”, the K half [1] was 110 nM.

In the case of phaR promoter, the K half ([3]; half of DNA in complex at highest concentration) was 110 nM.

Substance ppc promoter has a K half ([3]; about half of DNA shifted only at highest concentration) of 110 nM.
